To fix the notation:
B1: PCGF1 RAWUL (150–259)/BCOR PUFD dimer (complex, human)
chain 1: LPFSSFDHSKAHYYRYDEQLNLCLERLSSGKDKNKSVLQNKYVRCSVRAEVRHLRRVLCHRLMLNPQHVQLLFDNEVLPDHMTMKQIWLSRWFGKPSPLLLQYSVKEKRR
chain 2: SDVFEFEFSETPLLPCYNIQVSVAQGPRNWLLLSDVLKKLKMSSRIFRCNFPNVEIVTIAEAEFYRQVSASLLFSCSKDLEAFNPESKELLDLVEFTNEIQTLLGSSVEWLHPSD
B2: PCGF1 RAWUL (150–259)/BCOR 1448–1748 dimer (complex, human)
chain 1: LPFSSFDHSKAHYYRYDEQLNLCLERLSSGKDKNKSVLQNKYVRCSVRAEVRHLRRVLCHRLMLNPQHVQLLFDNEVLPDHMTMKQIWLSRWFGKPSPLLLQYSVKEKRR
chain 2: PMPPEARRLIVNKNAGETLLQRAARLGYEEVVLYCLENKICDVNHRDNAGYCALHEACARGWLNIVRHLLEYGADVNCSAQDGTRPLHDAVENDHLEIVRLLLSYGADPTLATYSGRTIMKMTHSELMEKFLTDYLNDLQGRNDDDASGTWDFYGSSVCEPDDESGYDVLANPPGPEDQDDDDDAYSDVFEFEFSETPLLPCYNIQVSVAQGPRNWLLLSDVLKKLKMSSRIFRCNFPNVEIVTIAEAEFYRQVSASLLFSCSKDLEAFNPESKELLDLVEFTNEIQTLLGSSVEWLHPSD
B3: PCGF1 RAWUL (150–259)/BCORL1 PUFD dimer (complex, human)
chain 1: LPFSSFDHSKAHYYRYDEQLNLCLERLSSGKDKNKSVLQNKYVRCSVRAEVRHLRRVLCHRLMLNPQHVQLLFDNEVLPDHMTMKQIWLSRWFGKPSPLLLQYSVKEKRR
chain 2: DDFMFELSDKPLLPCYNLQVSVSRGPCNWFLFSDVLKRLKLSSRIFQARFPHFEITTMPKAEFYRQVASSQLLTPAERPGGLDDRSPPGSSETVELVRYEPDLLRLLGSEVEFQSCNS
B4: PCGF1 RAWUL (150–259)/BCOR 1593–1748 dimer (complex, human)
chain 1: LPFSSFDHSKAHYYRYDEQLNLCLERLSSGKDKNKSVLQNKYVRCSVRAEVRHLRRVLCHRLMLNPQHVQLLFDNEVLPDHMTMKQIWLSRWFGKPSPLLLQYSVKEKRR
chain 2: DASGTWDFYGSSVCEPDDESGYDVLANPPGPEDQDDDDDAYSDVFEFEFSETPLLPCYNIQVSVAQGPRNWLLLSDVLKKLKMSSRIFRCNFPNVEIVTIAEAEFYRQVSASLLFSCSKDLEAFNPESKELLDLVEFTNEIQTLLGSSVEWLHPSD
B5: PCGF1 RAWUL (150–259)/BCOR PUFD Leu1705Gln dimer (complex, human)
chain 1: LPFSSFDHSKAHYYRYDEQLNLCLERLSSGKDKNKSVLQNKYVRCSVRAEVRHLRRVLCHRLMLNPQHVQLLFDNEVLPDHMTMKQIWLSRWFGKPSPLLLQYSVKEKRR
chain 2: SDVFEFEFSETPLLPCYNIQVSVAQGPRNWLLLSDVLKKLKMSSRIFRCNFPNVEIVTIAEAEFYRQVSASQLFSCSKDLEAFNPESKELLDLVEFTNEIQTLLGSSVEWLHPSD

Data on 5 molecules can be found in publication PMC8544800 (Biochemistry, 2020).

Broadly, the Kd is the free concentration of one partner at which half of the binding sites on the other are occupied at equilibrium, for simple one-to-one binding. A higher Kd goes with lower affinity.

The target in this assay is hexahistidine (6His)-tagged KDM2B/SKP1 dimer (human, UniProt Q8NHM5 1059-1336; P63208 1-163). As to the kind of experiment: BLI. For orientation: Biolayer interferometry detects binding as a change in optical thickness at a sensor tip.
Chain of hexahistidine (6His)-tagged KDM2B/SKP1 dimer (Q8NHM5 1059-1336, chain 1 of 2): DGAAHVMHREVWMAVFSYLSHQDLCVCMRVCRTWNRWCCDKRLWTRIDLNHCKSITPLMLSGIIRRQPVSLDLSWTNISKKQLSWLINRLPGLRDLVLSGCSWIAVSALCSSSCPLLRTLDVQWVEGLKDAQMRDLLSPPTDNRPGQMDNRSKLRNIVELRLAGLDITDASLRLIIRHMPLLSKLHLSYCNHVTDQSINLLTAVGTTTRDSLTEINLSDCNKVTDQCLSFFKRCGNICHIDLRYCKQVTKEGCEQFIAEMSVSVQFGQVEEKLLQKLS
Chain of hexahistidine (6His)-tagged KDM2B/SKP1 dimer (P63208 whole entry, chain 2 of 2): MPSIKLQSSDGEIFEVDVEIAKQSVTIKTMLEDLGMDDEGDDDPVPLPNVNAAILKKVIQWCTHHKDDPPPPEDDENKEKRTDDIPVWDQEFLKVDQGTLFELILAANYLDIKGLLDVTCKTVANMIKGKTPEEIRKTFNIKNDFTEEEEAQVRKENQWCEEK
Molecule B1 showed a dissociation constant (Kd) of 43000 nM.
The molecule B2 gave a dissociation constant Kd of approximately 31 nM.
Consider B3, for which the equilibrium dissociation constant (Kd) is approximately 240 nM.
Turning to B4, binding was put at a Kd of 106 nM.
Molecule B5 registered a Kd of 32 nM.
